Measured values published in publication PMC8764063.

Molecular target: T1, IRF3 (human (endogenous in U2OS)), Q14653
T1 chain: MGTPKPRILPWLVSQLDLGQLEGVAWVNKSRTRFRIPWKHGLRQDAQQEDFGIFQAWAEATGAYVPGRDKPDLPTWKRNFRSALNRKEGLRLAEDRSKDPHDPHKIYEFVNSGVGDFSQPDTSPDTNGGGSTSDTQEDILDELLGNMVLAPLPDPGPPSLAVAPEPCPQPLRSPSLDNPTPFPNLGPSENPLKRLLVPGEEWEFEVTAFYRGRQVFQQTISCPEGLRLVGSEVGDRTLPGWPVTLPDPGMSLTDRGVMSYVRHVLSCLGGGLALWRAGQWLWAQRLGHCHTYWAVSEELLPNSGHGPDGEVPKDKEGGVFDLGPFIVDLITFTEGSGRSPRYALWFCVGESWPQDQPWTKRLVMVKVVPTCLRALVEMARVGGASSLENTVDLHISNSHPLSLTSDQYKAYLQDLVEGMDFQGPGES
Assay: native gel or EMSA; native gel and Western blot for IRF3 of lysates (TBS lysis buffer: 20 mM Tris pH 7.5, 150 mM NaCl, 0.5% NP-40) of wild-type, PARP1 D214N or PARP1 KO U2OS cells with or without poly(dA-dT) (5 ug/ml, six hours); monomer to dimer
Details: remark: other sources report otherwise

stoichiometry N: 2
B1: IRF3, Q14653 1-427 (natural protein)
chain: MGTPKPRILPWLVSQLDLGQLEGVAWVNKSRTRFRIPWKHGLRQDAQQEDFGIFQAWAEATGAYVPGRDKPDLPTWKRNFRSALNRKEGLRLAEDRSKDPHDPHKIYEFVNSGVGDFSQPDTSPDTNGGGSTSDTQEDILDELLGNMVLAPLPDPGPPSLAVAPEPCPQPLRSPSLDNPTPFPNLGPSENPLKRLLVPGEEWEFEVTAFYRGRQVFQQTISCPEGLRLVGSEVGDRTLPGWPVTLPDPGMSLTDRGVMSYVRHVLSCLGGGLALWRAGQWLWAQRLGHCHTYWAVSEELLPNSGHGPDGEVPKDKEGGVFDLGPFIVDLITFTEGSGRSPRYALWFCVGESWPQDQPWTKRLVMVKVVPTCLRALVEMARVGGASSLENTVDLHISNSHPLSLTSDQYKAYLQDLVEGMDFQGPGES
